Experimental data reported in US20130052663A1 (ADDEX PHARMA SA, priority 2010, published 2013).

Legend:
[1] = target: chimeric receptor TNFR1(fl)-PDGFR(cd): full length human TNFR1 fused to the cytoplasmic tyrosine kinase domain of mouse PDGFR (human TNFR1 / mouse PDGFR); experiment: cell-based or functional assay
Target sequence (chain, as listed by the source mutant limits assumed): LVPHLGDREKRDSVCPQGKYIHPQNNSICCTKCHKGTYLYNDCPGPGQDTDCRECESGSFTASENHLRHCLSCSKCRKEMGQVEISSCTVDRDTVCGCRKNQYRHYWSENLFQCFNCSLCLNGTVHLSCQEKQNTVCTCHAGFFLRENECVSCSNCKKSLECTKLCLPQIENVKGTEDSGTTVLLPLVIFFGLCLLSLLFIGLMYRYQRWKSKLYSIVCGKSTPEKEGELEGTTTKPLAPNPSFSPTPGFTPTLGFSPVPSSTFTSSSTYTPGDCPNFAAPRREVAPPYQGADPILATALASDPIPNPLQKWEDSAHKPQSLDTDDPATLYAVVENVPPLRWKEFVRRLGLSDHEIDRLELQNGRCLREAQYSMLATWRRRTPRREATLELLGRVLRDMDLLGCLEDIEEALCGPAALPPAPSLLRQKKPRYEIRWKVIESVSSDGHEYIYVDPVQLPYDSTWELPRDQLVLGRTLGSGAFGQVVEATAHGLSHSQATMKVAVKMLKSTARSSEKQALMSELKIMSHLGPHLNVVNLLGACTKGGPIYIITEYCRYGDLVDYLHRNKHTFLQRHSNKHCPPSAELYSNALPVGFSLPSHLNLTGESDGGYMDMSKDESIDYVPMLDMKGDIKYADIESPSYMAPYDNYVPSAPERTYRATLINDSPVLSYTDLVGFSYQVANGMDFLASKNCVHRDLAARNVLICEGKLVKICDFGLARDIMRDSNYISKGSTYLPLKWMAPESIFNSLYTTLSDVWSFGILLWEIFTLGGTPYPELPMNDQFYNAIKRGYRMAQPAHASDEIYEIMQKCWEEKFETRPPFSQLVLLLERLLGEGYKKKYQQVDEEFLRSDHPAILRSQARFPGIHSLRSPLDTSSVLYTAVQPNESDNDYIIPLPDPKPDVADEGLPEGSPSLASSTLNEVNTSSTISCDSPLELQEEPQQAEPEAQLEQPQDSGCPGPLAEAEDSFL

[2] = target: T1, chimeric TNFR1-PDGFR Receptor (Homo sapiens, UniProt P19438); experiment: Ca2+-dependent aequorin luminescence in HEK293T Aequorin cells expressing chimeric TNFR1(fl)-PDGFR(cd) receptor, HTS setting; format: cell-based, human TNFR1 / mouse PDGFR; details: for Effect on TNF-dependent intracellular calcium increase (luminescence AUC): 1 μM inhibitor, 3 ng/ml TNF
T1 construct: yielding the expression construct pcDNA3.1 hygro TNFR1(fl)-PDGFR(cd) vector; mouse PDGFRb cytoplasmic tyrosine kinase domain (fusion partner); expressed in transfected cells; host or cells: HEK293T cells stably expressing apoaequorin
T1 sequence (P19438 with tags, fused parts or gaps): as the sequence (chain, as listed by the source mutant limits assumed) above
From the text: HEK293T stably expressing Apoaequorin were generated using standard cloning techniques. The HEK293T cells expressing Apoaequorin (“Aequorin cells”) were then further transfected as described in Examples 1-3 so as to express the chimeric receptors 1-3 as listed in Table 3.
In particular, the HEK293T Apoaequorin cells were transfected with pcDNA3.1 hygro TNFR1-fl-PDGFR-cd vector as prepared in Example 1 using Optifect™ Transfection Reagent (Invitrogen), according to the manufacturer's protocol.
HEK293T cells expressing Apoaequorin and the chimeric receptor (Example 4) were plated in 384-well plates at a concentration of 12500 cells per well in a final volume of 50 μl. The next day culture supernatants were removed and 25 μl labeling buffer (DMEM:F12 plus 0.1% BSA) containing 2.5 μM Coelenterazine h (Dalton Pharma services), was added. Cells were incubated at room temperature for 6 hrs. A FDSS7000 reader from Hamamatsu (Japan) was used to examine intracellular calcium levels. […] The instrument features include detection with a camera of fluorescence or luminescence and automatically converts fluorescence or luminescence signals into numeric data. This digital data is then used to determine the concentration of calcium inside the analyzed cells. The information is automatically analyzed in terms of a positive, negative or null effect of each test compound being examined. This system allowed differences between untreated and treated cells to be measured, for example by measuring the calcium flux in cells.
After a baseline reading of 10 seconds, cells were incubated for 3 minutes with different doses of inhibitors or buffer controls. […] The results were analyzed using the FDSS analysis software from Hamamatsu. […]
HEK293T Aequorin cells expressing fusion proteins as described in Example 4 were treated or not treated with 3 ng/ml of TNF and 300 ng/ml of an anti-TNFR1 antagonist monoclonal antibody (MAB225, R&D Systems) was added to half of the samples exposed to TNF. Following 10 minutes of exposure after TNF addition, the area under the curve was determined for each sample. […]

EC50, Ca2+-dependent aequorin luminescence, AUC over 10 minutes [1] [ng/mL]	EC50, Ca2+-dependent aequorin luminescence, Max-Min [1] [ng/mL]	EC80, Ca2+-dependent aequorin luminescence, AUC over 10 minutes [1] [ng/mL]	EC80, Ca2+-dependent aequorin luminescence, Max-Min [1] [ng/mL]	Effect on TNF-dependent intracellular calcium increase (luminescence AUC) ([2]; listed as PDGFR tyrosine kinase inhibitor)	Inhibitory efficacy (dose response), compared with full-length PDGFR cells ([2]; inhibitor 3 μM to 0.45 nM, cells exposed to TNF)	Compound	Effect on TNF-dependent intracellular calcium increase (luminescence AUC) [2]
1.27	1.06	2.9	3			Tumor necrosis factor (TNF) (ligand)	
				signalling is blocked	equal inhibitory efficacy	COc1cc2ncnc(N3CCN(C(=O)Nc4ccc(Oc5ccccc5)cc4)CC3)c2cc1OC [PDGFR Tyrosine Kinase Inhibitor III, 4-(6,7-Dimethoxy-4-quinazolinyl)-N-(4-phenoxyphenyl)-1-piperazinecarboxamide]	prevented the detection of intracellular calcium increase
